Test results from patent publication US20180127487A1 (Sanofi, published 2018).
Where a chain is given by its changes, count along the chain named. In names and notes the source's numbering stands.

T1: recombinant mouse FcRn (mouse, UniProt Q61559 22-297; P01887 21-119)
T1 sequence 1: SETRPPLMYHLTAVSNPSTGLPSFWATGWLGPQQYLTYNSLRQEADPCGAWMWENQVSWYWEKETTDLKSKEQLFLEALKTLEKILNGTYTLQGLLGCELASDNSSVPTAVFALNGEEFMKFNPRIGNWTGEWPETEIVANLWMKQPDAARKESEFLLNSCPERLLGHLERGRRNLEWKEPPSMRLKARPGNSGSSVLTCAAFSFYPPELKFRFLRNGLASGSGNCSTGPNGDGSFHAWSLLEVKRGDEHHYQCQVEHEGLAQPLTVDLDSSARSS
T1 sequence 2: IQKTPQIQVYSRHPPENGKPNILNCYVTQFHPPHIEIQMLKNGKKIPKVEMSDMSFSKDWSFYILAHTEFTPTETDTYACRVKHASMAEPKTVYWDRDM

B1: mAb8 (antibody)
heavy: QVQLVQSGAEVKKPGASVKVSCKVSGYILSKLSVHWVRQAPGKGLEWMGGSEREDGETVYAQKFQGRISLTEDTSIETAYMELSSLSSEDTAVYYCATGGFWSMIGGNGVDYWGQGTLVTVSSASTKGPSVFPLAPSSKSTSGGTAALGCLVKDYFPEPVTVSWNSGALTSGVHTFPAVLQSSGLYSLSSVVTVPSSSLGTQTYICNVNHKPSNTKVDKKVEPKSCDKTHTCPPCPAPELLGGPSVFLFPPKPKDTLYITREPEVTCVVVDVSHEDPEVKFNWYVDGVEVHNAKTKPREEQYNSTYRVVSVLTVLHQDWLNGKEYKCKVSNKALPAPIEKTISKAKGQPREPQVYTLPPSRDELTKNQVSLTCLVKGFYPSDIAVEWESNGQPENNYKTTPPVLDSDGSFFLYSKLTVDKSRWQQGNVFSCSVMHEALHNHYTQKSLSLSPG
light: QAVVTQSPSSLPASVGDRVTITCRASQDIRNNLGWYQQKPGKAPERLIYGTSNLQSGVPSRFSGSGSGTEFTLTISSLQPEDFATYYCLQHNSYPPTFGRGTKVEIKRTVAAPSVFIFPPSDEQLKSGTASVVCLLNNFYPREAKVQWKVDNALQSGNSQESVTEQDSKDSTYSLSSTLTLSKADYEKHKVYACEVTHQGLSSPVTKSFNRGEC
notes: also called mAb2YTE
B2: mAb3 (antibody)
heavy: not shown
light: QAVVTQPPSVSGAPGQRVTISCTGSSSNIGADYNVHWYQLLPGTAPKLLIYGNTNRPSGVPDRFSGSKSGTSASLAITGLQAEDEADYYCQSYDSSLSASVFGGGTKLTVLGQPKAAPSVTLFPPSSEELQANKATLVCLISDFYPGAVTVAWKADSSPVKAGVETTTPSKQSNNKYAASSYLSLTPEQWKSHRSYSCQVTHEGSTVEKTVAPTECS
notes: also called mAb1A
B3: mAb4 (antibody)
heavy: QVQLVQSGAEVKKPGASVKVSCKASGYSFTSYGISWVRQAPGQGLEWMGWISTYKGYTQYAQNFQGRVTITTDTPATTVYMELRSLRSDDTAVYYCARVLSETGYFYYYYYGMDVWGQGTLVTVSSASTKGPSVFPLAPSSKSTSGGTAALGCLVKDYFPEPVTVSWNSGALTSGVHTFPAVLQSSGLYSLSSVVTVPSSSLGTQTYICNVNHKPSNTKVDKKVEPKSCDKTHTCPPCPAPELLGGPSVFLFPPKPKDTLMISRTPEVTCVVVDVSHEDPEVKFNWYVDGVEVHNAKTKPREEQYNSTYRVVSVLAVLHQDWLNGKEYKCKVSNKALPAPIEKTISKAKGQPREPQVYTLPPSRDELTKNQVSLTCLVKGFYPSDIAVAWESNGQPENNYKTTPPVLDSDGSFFLYSKLTVDKSRWQQGNVFSCSVMHEALHAHYTQKSLSLSPG
light: B2 light
notes: also called mAb1AAA
B4: mAb5 (antibody)
heavy: not shown
light: B2 light
notes: also called mAb1QL
B5: mAb6 (antibody)
heavy: B3 heavy with M261Y, S263T, T265E, A316T, A389E, A443N
light: B2 light
notes: also called mAb1YTE
B6: mAb2 (antibody)
heavy: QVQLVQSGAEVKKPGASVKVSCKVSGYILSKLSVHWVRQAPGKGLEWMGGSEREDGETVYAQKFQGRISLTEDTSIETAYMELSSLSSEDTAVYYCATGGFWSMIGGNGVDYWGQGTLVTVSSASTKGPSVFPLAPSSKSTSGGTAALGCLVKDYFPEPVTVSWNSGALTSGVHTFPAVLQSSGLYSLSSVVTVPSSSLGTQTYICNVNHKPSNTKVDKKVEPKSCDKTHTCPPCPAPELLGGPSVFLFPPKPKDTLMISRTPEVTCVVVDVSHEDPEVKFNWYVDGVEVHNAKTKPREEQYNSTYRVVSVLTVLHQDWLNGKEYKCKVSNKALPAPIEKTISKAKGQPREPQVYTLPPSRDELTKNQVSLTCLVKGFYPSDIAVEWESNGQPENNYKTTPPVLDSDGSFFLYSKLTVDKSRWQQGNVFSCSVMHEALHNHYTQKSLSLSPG
light: B1 light
notes: also called parent antibody mAb2
B7: mAb11 (antibody)
heavy: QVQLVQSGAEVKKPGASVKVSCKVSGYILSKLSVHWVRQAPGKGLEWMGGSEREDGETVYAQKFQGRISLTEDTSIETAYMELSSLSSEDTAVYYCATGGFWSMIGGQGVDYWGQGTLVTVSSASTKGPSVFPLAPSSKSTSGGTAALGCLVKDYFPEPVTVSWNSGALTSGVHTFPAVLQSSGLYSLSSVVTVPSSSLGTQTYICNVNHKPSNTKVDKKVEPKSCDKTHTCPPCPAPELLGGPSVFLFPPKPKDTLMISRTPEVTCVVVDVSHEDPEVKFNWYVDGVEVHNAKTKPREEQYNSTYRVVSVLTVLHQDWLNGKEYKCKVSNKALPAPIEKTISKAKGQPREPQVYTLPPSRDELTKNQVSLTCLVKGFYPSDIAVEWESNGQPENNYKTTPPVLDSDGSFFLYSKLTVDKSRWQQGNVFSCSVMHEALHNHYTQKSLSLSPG
light: B1 light
notes: also called mAb2N108Q; mAb2 N108Q
B8: mAb12 (antibody, V domains shown)
VH: QVQLVQSGAEVKKPGASVKVSCKVSGYILSKLSVHWVRQAPGKGLEWMGGSEREDGETVYAQKFQGRISLTEDTSIETAYMELSSLSSEDTAVYYCATGGFWSMIGGNAVDYWGQGTLVTVSS
VL: QAVVTQSPSSLPASVGDRVTITCRASQDIRNNLGWYQQKPGKAPERLIYGTSNLQSGVPSRFSGSGSGTEFTLTISSLQPEDFATYYCLQHNSYPPTFGRGTKVEIKR
notes: also called mAb2G109A; mAb2 G109A
B9: mAb10 (antibody, V domains shown)
VH: B8 VH with M104I, A109G
VL: B8 VL
notes: also called mAb2M104I
B10: mAb2 M104A (antibody, V domains shown)
VH: B8 VH with M104A, A109G
VL: B8 VL
notes: also called variant comprising an alanine at position 8 of its CDRH3
B11: M104A/N108Q (antibody, V domains shown)
VH: B8 VH with M104A, N108Q, A109G
VL: B8 VL
notes: also called mAb2 M104A/N108Q; double mutant of mAb2 in CDRH3
B12: M104A/G109A (antibody, V domains shown)
VH: B8 VH with M104A
VL: B8 VL
notes: also called mAb2 M104A/G109A; double mutant of mAb2 in CDRH3

The binders below were run against T2, His-tagged CHIKV E2 LR2006 (Chikungunya virus strain LR2006, UniProt Q8JUX5 326-1220) (assay: SPR, His-tagged antigen captured).
T2 construct: also called CHIKV pE2-E1 antigen derived from CHIKV strain LR2006; pE2-E1 target
B1: binds.

These binders were tested against T3, His-tagged CHIKV E2 SL15649 (Chikungunya virus strain SL15649, UniProt Q8JUX5 326-1220) (assay: SPR, His-tagged antigen captured).
T3 construct: also called CHIKV pE2-E1 antigen derived from CHIKV strain SL15649; pE2-E1 target
B1: binds.

These binders were tested against T4, recombinant human FcRn (human, UniProt P55899 24-297; P61769 21-119) (assay: SPR, human FcRn immobilised; relative to mAb1).
T4 construct: also called human FcRn receptor
T4 sequence (P55899 24-297 limits assumed, chain 1 of 2): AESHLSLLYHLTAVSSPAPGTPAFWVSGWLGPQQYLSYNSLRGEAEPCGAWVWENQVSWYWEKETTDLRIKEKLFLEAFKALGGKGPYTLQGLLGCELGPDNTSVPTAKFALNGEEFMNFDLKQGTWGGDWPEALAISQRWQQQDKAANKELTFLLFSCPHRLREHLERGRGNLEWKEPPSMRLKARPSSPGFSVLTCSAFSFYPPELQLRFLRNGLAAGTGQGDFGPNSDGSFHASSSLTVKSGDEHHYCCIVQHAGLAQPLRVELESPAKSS
T4 sequence (P61769 21-119 limits assumed, chain 2 of 2): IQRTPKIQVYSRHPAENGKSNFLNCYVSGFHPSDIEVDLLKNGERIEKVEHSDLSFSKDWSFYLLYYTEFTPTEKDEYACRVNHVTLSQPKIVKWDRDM
In the case of B2, the “Affinity Increase (fold)” value is reported as 7.7 fold.
For B3, the “Affinity Increase (fold)” value was 11.3 fold.
In the case of B4, the “Affinity Increase (fold)” value is reported as 13 fold.
For B5, the “Affinity Increase (fold)” value was 16.3 fold.

Each binder was assayed against T1, recombinant mouse FcRn (assay: SPR, mouse FcRn immobilised; relative to mAb1).
For B2, the “Affinity Increase (fold)” value was 2.1 fold.
B3 was tested, and the “Affinity Increase (fold)” value was 2.3 fold.
For B4, the “Affinity Increase (fold)” value was 3.3 fold.
In the case of B5, the “Affinity Increase (fold)” value is reported as 10.4 fold.

The binders below were run against T4, recombinant human FcRn (assay: SPR, human FcRn immobilised; relative to mAb2).
B6 was tested, and the “Affinity Increase (fold)” value was 1 fold.
With B7 the “Affinity Increase (fold)” value was 1.1 fold.
With B1 the “Affinity Increase (fold)” value was 14.1 fold.

Each binder was assayed against T1, recombinant mouse FcRn (assay: SPR, mouse FcRn immobilised; relative to mAb2).
For B6, the “Affinity Increase (fold)” value was 1 fold.
B7 was tested, and the “Affinity Increase (fold)” value was 1.1 fold.
B1 was tested, and the “Affinity Increase (fold)” value was 19.5 fold.

These binders were tested against T4, recombinant human FcRn (assay: SPR (Biacore T200), human FcRn immobilised on CM5 chip).
B2 gave a Kd of 45 nM.
Work on B3 yielded a Kd of 31 nM.
B4 gave a Kd of 27 nM.
B5 showed a Kd of 21 nM.

These binders were tested against T1, recombinant mouse FcRn (assay: SPR (Biacore T200), mouse FcRn immobilised on CM5 chip).
B2 showed a Kd of 9.3 nM.
In the case of B3, the Kd is reported as 8.4 nM.
For B4, the Kd was 5.9 nM.
B5 gave a Kd of 1.9 nM.

Molecular target: T4, recombinant human FcRn
Assay: SPR (Biacore T200), human FcRn immobilised on CM5 chip
Remark: another data set of the same source
In the case of B6, the Kd is reported as 328 nM.
In the case of B7, the Kd is reported as 301 nM.
Work on B1 yielded a Kd of 23 nM.

Molecular target: T1, recombinant mouse FcRn
Assay: SPR (Biacore T200), mouse FcRn immobilised on CM5 chip
Remark: another data set of the same source
Binder B6 has a Kd of 22 nM.
With B7 the Kd was 20 nM.
For B1, the Kd was 1.2 nM.

Each binder was assayed against Antigen (E2) (Chikungunya virus) (assay: SPR (Biacore T200), His-tagged antigen captured by anti-His antibody, 1:1 model).
Work on B6 yielded a Kd of 0.13 nM.
B8 showed a Kd of 0.5 nM.
With B7 the Kd was 0.22 nM.
For B9, the Kd was 0.94 nM.

These binders were tested against T2, His-tagged CHIKV E2 LR2006 (assay: not given).
B6: binds.
B10: no binding.
B8: binds.
B7: binds.
B9: binds.
B11: no binding.
B12: no binding.

These binders were tested against T5, Recombinant human HPC4-tagged FcγRIII-F158 (human, UniProt P08637 17-208) (assay: SPR (Biacore 3000), HPC4-tagged FcγRIII-F158 captured on anti-HPC4 CM5 chip, antibody injected 2 min, in duplicate; concentration (900, 300 or 100 nM in the methods) not printed on the sheet).
T5 construct: also called FcγRIIIaF158; not shown: HPC4 tag
T5 sequence (P08637 17-208): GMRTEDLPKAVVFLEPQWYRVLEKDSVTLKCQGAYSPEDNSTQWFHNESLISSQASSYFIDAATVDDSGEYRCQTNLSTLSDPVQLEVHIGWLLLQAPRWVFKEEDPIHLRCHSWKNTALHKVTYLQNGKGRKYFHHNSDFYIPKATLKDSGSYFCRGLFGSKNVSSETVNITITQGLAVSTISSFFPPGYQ
B2: binds.
B3: binds.
B4: binds.
B5: binds.

Molecular target: T5, Recombinant human HPC4-tagged …
Assay: as above
Remark: another data set of the same source
B6: binds.
B7: binds.
B1: binds.

Each binder was assayed against T6, Recombinant human HPC4-tagged FcγRIIIa-V158 (human, UniProt P08637 17-208) (assay: SPR (Biacore 3000), HPC4-tagged FcγRIIIa-V158 captured on anti-HPC4 CM5 chip, antibody injected 2 min, in duplicate; concentration (900, 300 or 100 nM in the methods) not printed on the sheet).
T6 construct: Valine at 158 is a polymorphism, named without an old residue; also called Val158; not shown: HPC4 tag
T6 sequence (P08637 17-208 F176V): as the sequence (P08637 17-208) above, with F160V counted along it
B2: binds.
B3: binds.
B4: binds.
B5: binds.

Molecular target: T6, Recombinant human HPC4-tagged …
Assay: as above
Remark: another data set of the same source
B6: binds.
B7: binds.
B1: binds.
